From patent publication US20230167426

Target: T1, AcrE2 (type I-E anti-CRISPR from Pseudomonas phage JBD88a)
T1 chain: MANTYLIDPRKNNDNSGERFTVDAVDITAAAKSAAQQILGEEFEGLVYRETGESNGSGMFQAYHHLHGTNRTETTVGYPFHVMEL

B1: 6×His-tagged NmeCas9 (Neisseria meningitidis Cas9) (protein)
chain: MAAFKPNSINYILGLDIGIASVGWAMVEIDEEENPIRLIDLGVRVFERAEVPKTGDSLAMARRLARSVRRLTRRRAHRLLRTRRLLKREGVLQAANFDENGLIKSLPNTPWQLRAAALDRKLTPLEWSAVLLHLIKHRGYLSQRKNEGETADKELGALLKGVAGNAHALQTGDFRTPAELALNKFEKESGHIRNQRSDYSHTFSRKDLQAELILLFEKQKEFGNPHVSGGLKEGIETLLMTQRPALSGDAVQKMLGHCTFEPAEPKAAKNTYTAERFIWLTKLNNLRILEQGSERPLTDTERATLMDEPYRKSKLTYAQARKLLGLEDTAFFKGLRYGKDNAEASTLMEMKAYHAISRALEKEGLKDKKSPLNLSPELQDEIGTAFSLFKTDEDITGRLKDRIQPEILEALLKHISFDKFVQISLKALRRIVPLMEQGKRYDEACAEIYGDHYGKKNTEEKIYLPPIPADEIRNPVVLRALSQARKVINGVVRRYGSPARIHIETAREVGKSFKDRKEIEKRQEENRKDREKAAAKFREYFPNFVGEPKSKDILKLRLYEQQHGKCLYSGKEINLGRLNEKGYVEIDHALPFSRTWDDSFNNKVLVLGSENQNKGNQTPYEYFNGKDNSREWQEFKARVETSRFPRSKKQRILLQKFDEDGFKERNLNDTRYVNRFLCQFVADRMRLTGKGKKRVFASNGQITNLLRGFWGLRKVRAENDRHHALDAVVVACSTVAMQQKITRFVRYKEMNAFDGKTIDKETGEVLHQKTHFPQPWEFFAQEVMIRVFGKPDGKPEFEEADTLEKLRTLLAEKLSSRPEAVHEYVTPLFVSRAPNRKMSGQGHMETVKSAKRLDEGVSVLRVPLTQLKLKDLEKMVNREREPKLYEALKARLEAHKDDPAKAFAEPFYKYDKAGNRTQQVKAVRVEQVQKTGVWVRNHNGIADNATMVRVDVFEKGDKYYLVPIYSWQVAKGILPDRAVVQGKDEEDWQLIDDSFNFKFSLHPNDLVEVITKKARMFGYFASCHRGTGNINIRIHDLDHKIGKNGILEGIGVKTALSFQKYQIDELGKEIRPCRLKKRPPVR
In the case of B1, the “in vitro DNA cleavage by NmeCas9” value is reported as “Cleavage was unaffected by prior incubation of NmeCas9 with increasing amounts of the control, type I-specific anti-CRISPR, AcrE2”.
